Experiment: yeast display, Sf9 membrane polyspecificity reagent, FACS + sequencing; frameworks hold sequencing errors
Procedure, shortened: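 Genes from sorted yeast were amplified by colony PCR, read by MiSeq 2 × 250 sequencing and filtered on CDR length. These cells carried a synthetic nanobody library in Saccharomyces cerevisiae BJ5465 and were sorted by FACS into low and high (top ~1%) gates on anti-HA and streptavidin fluorescence. Polyreactivity is labelled according to the gate of origin.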

Sequence | polyreactivity (PSR sort gate)
QVQLVESGGGLVQAGGSLRLSCAASGSTFYIYAMGWYRQAPGKERELVAVITRRGGSTSYADSVKGRFTISRDNAKNTVYLQMNSLKPEDTAVYYCAAKRTWPDVKYIRYGYWGQGAQVTVSS | high polyreactivity
QVQLVESGGGLVQAGGSLRLSCAASGSTFYIYAMVWYRQAPGKERELVAAITGTGGSTYYADSVKGRFTISRDNAKNSVYLQMNSLKPEDTAVYYCAVGFGYYYKYGYWGQGTQVTVSS | low polyreactivity
QVQLVESGGGLVQAGGSLRLSCAASGSTFYKNAMGWNRQAPGKERELVASISRSGGSTSYADSVKGRFTISRDNAKNTVYLQMNSLKPEDTAVYYCAATWRQHPGSMGYWGQGTQVTVSS | high polyreactivity
QVQLVESGGGLVQAGGSLRLSCAASGSTFYKNAMGWYRQAPGKERELVAVINASGDSTYYADSVKGRFTISRDNAKNTVYLQMNSLKPEDTAVYYCAADHRGEYDYWGQGTQVTVSS | low polyreactivity
QVQLVESGGGLVQAGGSLRLSCAASGSTFYKYAMGWSRQAPGKERELVASITGGTRTYYADSVKGRFTISRDNAKNTVYLQMNSLKPEDTAVYYCNVVGGRYLYSAYDYWGQGTQVTVSS | low polyreactivity
QVQLVESGGGLVQAGGSLRLSCAASGSTFYKYAMGWYRQAPGIEPELVAAISRGGSTYYADSVKGRFTISRDNAKNTVYLQMNSLKPEDTAVYYCAAETVSYYSKYDYWGQGTQVTVSS | low polyreactivity
QVQLVESGGGLVQAGGSLRLSCAASGSTFYLNAMGWYRQAPGKERELVATKNSSGSTYNADSVKGRFTISRDNAKNTVYLQMNILKPEDTAVYYCNAYGSDRLSLDDYWGQGTQVTVSS | low polyreactivity
QVQLVESGGGLVQAGGSLRLSCAASGSTFYLNVMGWYRQAPGKERELVAAISSGDGSTYYADSVKGRFTISRDNAKNTVYLQMNSLKPEDTAVYYCAAEPDTEVDYDYWGQGTQVTVSS | low polyreactivity
QVQLVESGGGLVQAGGSLRLSCAASGSTFYPNAKGWYRQAPGKDREFVAASSTSAGRTYYADSVKGRFTISRDNAKKTVYLQINSLKPEDTAVYYCNARYWVYYVYEYDSWGQGTQVTVSS | low polyreactivity
QVQLVESGGGLVQAGGSLRLSCAASGSTFYPNAMGWYRQAPGKERELVAAISRGTRTKYADSVKGRFTISRDNAMNTVYLQMNSLKPEDTAVYYCAADTGTGLDWGQGTQVTVSS | high polyreactivity
QVQLVESGGGLVQAGGSLRLSCAASGSTFYPNAMGWYRQAPGKERELVAAITGGGSTTYADSVKGRFTISRDNAKNTVYLQMNSLKQEDTAVYYCNTDGPRYARPYDSWGQGTQVTVSS | low polyreactivity
QVQLVESGGGLVQAGGSLRLSCAASGSTFYPTYAMGWYRQAPGKERELVATITGSGGSTYYADSVKGRFTISRDNAKNTVYLQMNSLKPEDTAVYYCAADRWYSRYTRYGYWGQGTQVTVSS | low polyreactivity
QVQLVESGGGLVQAGGSLRLSCAASGSTFYPYAKGWYRQAPRKERELVATITNSGGSTYYADSVKGRFTISRDNAKNTVYLQMNSLKPEDTAVYYCARVRSRNTGYYYWGQGTQVTVSS | high polyreactivity
QVQLVESGGGLVQAGGSLRLSCAASGSTFYPYAMGWYRQAPGKEREFVAGISRSGGTTYYADSLKGRFTISRDNAKNTVYLQMNSLKPEDTAVYYCAVQIPYVYWSYDYWGQGTEVTVSS | low polyreactivity
QVQLVESGGGLVQAGGSLRLSCAASGSTFYPYAMGWYRQAPGKERELVAAITTRGRTYYGDSVKGRFTISRDNAKYTVYLQMNSLKPEDTAVYYCNARRYFSRDTSGYNYWGQGTQVTVSS | high polyreactivity
QVQLVESGGGLVQAGGSLRLSCAASGSTFYPYVMGWYRQAPGKERELVAGISYRGGITYYADSVKGRFTISRDYAKNTVYLQMNSLKPEDTAVYYCAADYWSVYLARKMDYWGQGTQVTVSS | low polyreactivity
QVQLVESGGGLVQAGGSLRLSCAASGSTFYRNAMGWYRQAPGKERELVAGISRRGGSTYYADSVKGRFTISRDNAKNTVYLQMNSLKPEDTAVYYCNADYPGIPHNDYWGQGTQVTVSS | low polyreactivity
QVQLVESGGGLVQAGGSLRLSCAASGSTFYRNVMGWYRQAPGKERELVAAISSGGSTYYADSVKGRFTISRDNAKNTVYLQMNSLKPEDTAVYYCARRLTREYDYWGQGTQVTVSS | low polyreactivity
QVQLVESGGGLVQAGGSLRLSCAASGSTFYRYALGWYRQAPGKERELVAAISRSGGNTFYADSVKGRFTISRDNAKNTVYLQMNRLKPEDTAVYYCAALRSWYAQTSGMDYWGQGTHVTVSS | high polyreactivity
QVQLVESGGGLVQAGGSLRLSCAASGSTFYRYAMGWYRQAPGKERELVAAISSDGTTYYADSVKGRFTISRDNAKNTVYLQMNSLKPEDTAVYYCAKRGYYRSRRYDYWGQGTQVTVSS | high polyreactivity
QVQLVESGGGLVQAGGSLRLSCAASGSTFYRYAMGWYRQAPGKERELVAAISYRGGSTYYADSVKGRFTISRDNAKNTVYLQMNSLKPEDTAVYYCNKRSTRRYDYWGQGTQETVSS | high polyreactivity
QVQLVESGGGLVQAGGSLRLSCAASGSTFYRYAMGWYRQAPGKERELVAGISSSGGSTYYADSVKGRFTISRDNAKNTVYLQMNSLKPEDTAVYYCAAVGQWGYGYWGQGTQVTVSS | high polyreactivity

Sequence | polyreactivity (PSR sort gate)
QVQLVESGGGLVQAGGSLRLSCAASGSTFYRYAMGWYRQAPGKERELVATISGGGRTNYADSVKGRFTISRDNAKNTVYLQMNCLKPEDTAVYYCAARGYTGRFSRVNVPFYYWGQGTQVTVSS | high polyreactivity
QVQLVESGGGLVQAGGSLRLSCAASGSTFYSNAMGWDRQAPGKERELVASISWSSGSTYYADSVKGRFTISRDNAKNTVYLQMNSLKPEDTAVYYCATDAGGPYRFGYWGQGTQVTVSS | low polyreactivity
QVQLVESGGGLVQAGGSLRLSCAASGSTFYSNAMGWYRQAPGKERELVAGIDTSDGSTNYADSVKGRITISRDNAKNTVYLQMNSLKPEDTAVYYCNTTLRDSRQYVDRAPYTRYDYWGQGTQVTVSS | low polyreactivity
QVQLVESGGGLVQAGGSLRLSCAASGSTFYSNPMGWSRQAPGKESEFVAAISWSGGSTYYADSVKGRFTISRDNAKNSVYFQMYSLKPQDTAVYSCAKKPYYYAYGGYGYWGQGNQVTVSS | high polyreactivity
QVQLVESGGGLVQAGGSLRLSCAASGSTFYSYAMGWYRQAPGKERELVAAIDWSGDNTNYADSVKGRFTISRDNAKNTVYLQMNSLKPEDTAVYYCAADWYYTRRRYNYWGQGTQVTVSS | low polyreactivity
QVQLVESGGGLVQAGGSLRLSCAASGSTFYSYAMGWYRQAPGKERELVAAIDWSGTSTYYADSVKGRFTISRDNAKNTVYLQMNSLKPEDTAVYYCAARYTRGGSGPDYNYWGQGTQVTVSS | high polyreactivity
QVQLVESGGGLVQAGGSLRLSCAASGSTFYSYAMGWYRQAPGKERELVAAISSSGGRTRYADSVKGRFTISRDNAKNTVYLQMNSLKPEDTAVYYCAARNRVRVGTRIGRIDEDYWGQGTQVTVSS | high polyreactivity
QVQLVESGGGLVQAGGSLRLSCAASGSTFYTNAKGWYRQAPGKEREFVAAISWAGSSTYADSVKGRFTISRDNAKTTVYLQMHSLKPEDTAVYYCNADVLDGGYDYWGQGTQVTVSS | low polyreactivity
QVQLVESGGGLVQAGGSLRLSCAASGSTFYTNAMGWYRQAPGKEREFVAAISWSGSSTYADSVKGRFTISRDNAKNTVYLQMNSLKPEDTAVYYCSADWFKLRTDYYWGQGTQVTVSS | low polyreactivity
QVQLVESGGGLVQAGGSLRLSCAASGSTFYTYAMGWSRPAPGKERELVAAINWIGDSTYYADSVKGRFTISRDNAKNTVYLQMNSLKPEDTAVYYCAADFTLGSRTEGLHMDYWGQGTQVTVSS | high polyreactivity
QVQLVESGGGLVQAGGSLRLSCAASGSTFYTYTAMGWYRQAPGKERELVAAITWRGGSTYYADSVKGRFTISRDNAKNTVYLHMNRLKPEDTSGYYCAADCVMTWWAYDYWGQGTQVTVSS | high polyreactivity
QVQLVESGGGLVQAGGSLRLSCAASGSTFYTYTMGWYRPGPGKEMELVAAISSSGGDTYYADSVKGRFTISRDNAKNTVYLQMNSLKPEDTAVYYCAALGAFPSLEFDYWGQGTQVTVSS | low polyreactivity
QVQLVESGGGLVQAGGSLRLSCAASGSTFYVNAMGSYRQAPGQERELVAAIRSSAGNTTYADSVKGRFTISRDNAKNTVYLQMNSLKPEETAVYYCAADSRPYLRDYWGQGTQVTVSS | low polyreactivity
QVQLVESGGGLVQAGGSLRLSCAASGSTFYVNAMGWYRQAPGKDRELVAVISTGGSTYYADSVKGRFTISRDNAKNTVYLQMNSLKPEDTAVYYCAKRDLPDRSGTPNVIPFDYWGQGTQVTVSS | low polyreactivity
QVQLVESGGGLVQAGGSLRLSCAASGSTFYVNAMGWYRQAPGKERELVAAISRRGGSTYYADSVKGRFTISRDNAKNTVYLQMNSLKPEDTAVYYCNVVPVWRPYSLINWQKHFGYWGQGTQVTVSS | high polyreactivity
QVQLVESGGGLVQAGGSLRLSCAASGSTFYVNAMGWYRQAPGKERELVAGISYNAGSTYYADSVKGRFTISRDNAKNTVSLQMNSLKPEDTAVYYCAAYPYWRWYGYLGYDYWGQGTQVTVSS | low polyreactivity
QVQLVESGGGLVQAGGSLRLSCAASGSTFYVNAMGWYRQTPGKERELVATIPSGSITDYADSVKGRFTISRDNAKNTVYLQMNSLKPEDTAVYYCAKTYVQEHGVDYWGQGTQVTVSS | low polyreactivity
QVQLVESGGGLVQAGGSLRLSCAASGSTFYVNVMGWYRQAPGKERELVADISNDGSTHYADSVKGRFTISRDTAKNTVYLQMNSLKPEDTAVYYCNAEEIDEASYAYPPLEYDYWGQGTQVTVSS | low polyreactivity
QVQLVESGGGLVQAGGSLRLSCAASGSTFYVYAMGWYRQAPGKERELVAAITVRGGSTYYADSVKGRFTISRDNAKNTVYLQMNSLKPEDTAVYYCAVDVSKPYYEMDYWGQGTQVTVSS | high polyreactivity
QVQLVESGGGLVQAGGSLRLSCAASGSTFYVYDMGWYRQAPGKEREFVAVISWNGGSTYYADSVKGRFTISRDNAKNTVYLQMNSLKPEDTAVYYCATRRSSGRVTYDYWGQGTQVTVSS | low polyreactivity
QVQLVESGGGLVQAGGSLRLSCAASGSTFYVYPMGWYRQAPGKERELVAAITRGGTTYYADSVKGRFTISRDNAKNTVYLQMNSLKPEDTAVYYCAKYLTGAADLVPEYDYWGQGTQVTVSS | low polyreactivity

Source: the nanobody polyreactivity screen of Harvey et al. (2022)
